In experiment [1] the target is Anti-P. aeruginosa O6ad Fab, c-myc- and 6× His-tagged (human). Put plainly: cell-based or functional assay.
Experiment [2] addresses Anti-P. aeruginosa O6ad scFv, c-myc- and 6× His-tagged (human). Put plainly: cell-based or functional assay.
Experiment [3] concerns the target Anti-P. aeruginosa O6ad Fab, c-myc- and 6× His-tagged (human). Put plainly: ELISA, rAb coated, anti-tag IgG titrated (FIG. 7).
The target in experiment [4] is Anti-P. aeruginosa O6ad scFv, c-myc- and 6× His-tagged (human). Put plainly: ELISA, rAb coated, anti-tag IgG titrated (FIG. 7). On the technique in general: An ELISA detects its analyte on a solid surface through an enzyme-linked reagent.
The target in experiment [5] is Anti-P. aeruginosa O6ad Fab, c-myc- and 6× His-tagged (human). The experiment can be described thus: ELISA: anti-O6ad Fab coated, two-fold dilutions of anti-tag IgG, goat anti-mouse IgG-HRP.
Experiment [6] concerns the target Anti-P. aeruginosa O6ad scFv, c-myc- and 6× His-tagged (human). Put plainly: ELISA: anti-O6ad scFv coated, two-fold dilutions of anti-tag IgG, goat anti-mouse IgG-HRP.
Experiment [7] concerns the target Human complement C1q (human) (UniProt P02745). Put plainly: C1q deposition ELISA, anti-tag IgG alone at 66.67 nM.
Sequence of UniProt P02745 (P02745 23-245 limits assumed, chain 1 of 3): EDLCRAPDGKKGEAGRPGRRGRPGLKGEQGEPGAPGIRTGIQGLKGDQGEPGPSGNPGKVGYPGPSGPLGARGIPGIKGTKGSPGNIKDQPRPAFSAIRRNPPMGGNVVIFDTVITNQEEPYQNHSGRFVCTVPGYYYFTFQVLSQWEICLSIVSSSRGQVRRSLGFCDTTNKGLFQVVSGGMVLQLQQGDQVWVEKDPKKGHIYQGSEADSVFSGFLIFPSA
Sequence of UniProt P02745 (P02746 28-253 limits assumed, chain 2 of 3, further chain): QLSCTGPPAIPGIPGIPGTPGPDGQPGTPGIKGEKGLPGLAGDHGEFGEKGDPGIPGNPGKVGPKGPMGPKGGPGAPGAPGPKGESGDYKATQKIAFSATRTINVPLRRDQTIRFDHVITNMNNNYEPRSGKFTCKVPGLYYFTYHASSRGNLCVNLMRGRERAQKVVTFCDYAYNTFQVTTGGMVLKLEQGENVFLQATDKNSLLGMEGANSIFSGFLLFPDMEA
Sequence of UniProt P02745 (P02747 29-245 limits assumed, chain 3 of 3, further chain): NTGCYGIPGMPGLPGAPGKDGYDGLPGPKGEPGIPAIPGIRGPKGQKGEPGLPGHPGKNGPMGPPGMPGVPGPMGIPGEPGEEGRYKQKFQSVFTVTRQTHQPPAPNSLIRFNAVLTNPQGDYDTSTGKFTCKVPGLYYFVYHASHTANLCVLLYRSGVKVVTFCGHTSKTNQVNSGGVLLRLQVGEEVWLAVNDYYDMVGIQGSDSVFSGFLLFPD

In general, EC50 (read off the curve) refers to the concentration at which the effect is half-maximal. A high value points to weaker potency. Regarding “Anti-Penta-His IgG1 murine mAb (QIAgen) (antibody)”, in experiment [1], the % phagocytosed bacteria (P. aeruginosa O6ad, J774.1A) came to 27%; the fold increase of bacterial uptake over the control without antibodies, at 13.09 nM anti-tag IgG was 3.5 fold; the fold phagocytosis relative to Fab-9E10 is over 1.2 fold. For the same substance, in experiment [2], the % phagocytosed bacteria (P. aeruginosa O6ad, J774.1A) came out at 42%; the fold increase of bacterial uptake over the control without antibodies, at 13.09 nM anti-tag IgG was found to be 10.6 fold; the fold phagocytosis relative to scFv-9E10 is 2 fold. In addition, in experiment [3], the fold binding relative to 9E10 was under 10 fold. Also, in experiment [4], the fold binding relative to 9E10 is under 10 fold. In addition, the EC50 (read off the curve) in experiment [5] was determined as 1 nM. In addition, the EC50 (read off the curve) in experiment [6] is 1 nM.

On to “Murine mAb 9E10 (anti-c-myc IgG1) from hybridoma 1-9E10.2 (ATCC CRL-1729) (antibody)”, for which the % phagocytosed bacteria (P. aeruginosa O6ad, J774.1A) in experiment [1] worked out at 18.8%; in experiment [2], 24.8%. The fold increase of bacterial uptake over the control without antibodies, at 13.09 nM anti-tag IgG in experiment [1] came out at 3.5 fold; in experiment [2], 4.6 fold. Further, the fold C1q deposition relative to Penta-His in experiment [7] was found to be 1.4 fold.

The values are drawn from US20160215041A1.
